{
  "source": "patent US20100021448",
  "proteins": {"B1": {"name": "I-CreI variant DRN (D44, R68, N70, N75) (protein)", "chain": "MANTKYNKEFLLYLAGFVDGDGSIIAQIKPNQSYKFKHQLSLTFDVTQKTQRRWFLDKLVDEIGVGYVRDNGSVSNYILSEIKPLHNFLTQLQPFLKLKQKQANLVLKIIEQLPSAKESPDKFLEVCTWVDQIAALNDSKTRKTTSETVRAVLDSLSEKKKSSPAAD"}},
  "biological_target": "T1, I-CreI variant RRN (R44, R68, N70, N75)",
  "T1 chain": "B1 chain with D45R",
  "note": "Where a chain is given by its changes, count along the chain named.",
  "data": [
    {"protein": "B1", "values": [
      {"measurement": "cleavage of chimeric DNA targets on co-expression", "result": "no cleavage of chimeric targets could be detected by co-expression of the same weak mutants"}
    ]}
  ]
}
